The target of series [1] is T1, γ-gliadin peptide (IQPQQPAQL).
T1 chain: IQPQQPAQL

The target in series [2] is T2, fluorescent analogue of gliadin, hexapeptide QPQLPY conjugated to a fluorophore and a quencher.
T2 chain: QPQLPY

Series [3] has as its target T3, Glia_56-79 peptide (LQLQPFPQPQLPYPQPQLPY).
T3 chain: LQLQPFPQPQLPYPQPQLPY

Series [4] has as its target T4, 33mer peptide (LQLQPFPQPQLPYPQPQLPYPQPQLPYPQPQPF).
T4 chain: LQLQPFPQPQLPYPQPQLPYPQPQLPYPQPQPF

The target of series [5] is T5, fluorescently quenched α-gliadin hexapeptide analogue QXL520-PQPQLP-K(5-FAM)-NH2.
T5 chain: PQPQLP

The target in series [6] is T6, α2-gliadin peptide (PQPQLPYSQPQPFR).
T6 chain: PQPQLPYSQPQPFR

Series [7] concerns the target T7, α9-gliadin peptide (QLQPFPQPQLPY).
T7 chain: QLQPFPQPQLPY

Series [8] concerns the target T8, 26mer peptide (FLQPQQPFPQQPQQPYPQQPQQPFPQ).
T8 chain: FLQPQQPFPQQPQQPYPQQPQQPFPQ

The values below come from patent US10487318.

B1: Kumamolisin-As (wild type) (protein)
chain: MSDMEKPWKEGEEARAVLQGHARAQAPQAVDKGPVAGDERMAVTVVLRRQRAGELAAHVERQAAIAPHAREHLKREAFAASHGASLDDFAELRRFADAHGLALDRANVAAGTAVLSGPVDAINRAFGVELRHFDHPDGSYRSYLGEVTVPASIAPMIEAVLGLDTRPVARPHFRMQRRAEGGFEARSQAAAPTAYTPLDVAQAYQFPEGLDGQGQCIAIIELGGGYDEASLAQYFASLGVPAPQVVSVSVDGASNQPTGDPSGPDGEVELDIEVAGALAPGAKFAVYFAPNTDAGFLDAITTAIHDPTLKPSVVSISWGGPEDSWTSAAIAAMNRAFLDAAALGVTVLAAAGDSGSTDGEQDGLYHVDFPAASPYVLACGGTRLVASGGRIAQETVWNDGPDGGATGGGVSRIFPLPAWQEHANVPPSANPGASSGRGVPDLAGNADPATGYEVVIDGEATVIGGTSAVAPLFAALVARINQKLGKAVGYLNPTLYQLPADVFHDITEGNNDIANRAQIYQAGPGWDPCTGLGSPIGVRLLQALLPSASQPQPGSTENLYFQSGALEHHHHHH
For B1, the “grade and % of peptide after an 80-min incubation” value (shortened to “grade and % of peptide”) was “++/-; 39%” in series [1], “+++; 0.2%” in series [3], “++ (undetect)” in series [6] and “++; 2%;” in series [7]. Besides, the “rate of degradation of the fluorescent hexapeptide, pH 4.0, 37° C.” value (from here on “rate”) in series [2] is reported as “Kumamolisin has some activity breaking down these gliadin substrates”. Besides, the “Degradation pattern of 33mer (60 min)” value in series [4] is on record as “degrades the 33-mer down at only a single location (WT-like)”. In series [4], the “activity on peptide (percent)” value stood at 18%. Also, the Fold Change in Activity of PQ Hydrolysis Relative to Wild Type Kumamolysin-As in series [5] turned out to be 1 fold.

B2: Homologue 4 (NCBI ZP_10028298) (protein)
chain: MANHPLNGSERECLKDAQPIGKADPNERLEVTMLVRRRSHDAFEKHISALAAQGASAKHIDHDEFTKHFGADSADLAAVHAFAQKHGLSVVESHEARRAVVLSGTVAQFDAAFGVSLQQYEHDGGTYRGRTGPIHLPDELNGVVDAVMGLDNRPQARPSFRTRAQGNVRWTARAAGASTFTPVQLASLYDFPQGDGQNQCIGIIELGGGYRPADLKTYFASLNMKAPSVTAVSVDHGRNHPTGDPNGPDGEVMLDIEVAGAVAPGAKIVVYFAPNTDAGFIDAIGTAIHDTKNKPSVISISWGGPESAWTQQAMNAFDQAFQSAAALGVTICAASGDNGSGDGVGDGADHVDFPASSPYALGCGGTSLQASGNGIASETVWNDGANGGATGGGVSSFFALPAWQEGLRVTRAGGAHSPLAMRGVPDVAGNADPVTGYEVRVDGHDMVIGGTSAVAPLWAGLIARINAIKGAPVGYINPHLYKDPLALVDITKGNNDDFHATAGWDACTGLGRPDGKKVKDAVS
For the protein B2, the “grade and % of peptide” value in series [1] is listed as “+; 12%”; in series [3], “++; 0.6%”; in series [6], “++ (undetect)”; in series [7], “++/-; 25%;”. In addition, the “rate” value in series [2] is reported as “had activity comparable to or better than Kumamolisin under these conditions”. The “Degradation pattern of 33mer (60 min)” value in series [4] is on record as “WT-like”. In addition, the “activity on peptide (percent)” value in series [4] is given as 38%.

B3: Homologue 4 mutant (protein)
chain: MANHPLNGSERECLKDAQPIGKADPNERLEVTMLVRRRSHDAFEKHISALAAQGASAKHIDHDEFTKHFGADSADLAAVHAFAQKHGLSVVESHEARRAVVLSGTVAQFDAAFGVSLQQYEHDGGTYRGRTGPIHLPDELNGVVDAVMGLDNRPQARPSFRTRAQGNVRWTARAAGASTFTPVQLASLYDFPQGDGQNQCIGIIELGGGYRPADLKTYFASLNMKAPSVTAVSVDHGRNHPTGDPNGPDGEVMLDIEVAGAVAPGAKIVVYFAPNTDAGFIDAIGTAIHDTKNKPSVISISWSGPESAWTQQAMNAFDQAFQSAAALGVTICAASGDNGSGGGVGDGADHVHFPASSPYALGCGGTSLQASGNGIASETVWNDGANGGATGGGVSSFFALPAWQEGLRVTRAGGAHSPLAMRGVPDVAGNADPVTGYEVRVDGHDMVIGGTSAVAPLWAGLIARINAIKGAPVGYINPHLYKDPLALVDITKGNNDDFHATAGWDACTGLGRPDGKKVKDAVS
For the protein B3, the “activity on peptide (percent)” value in series [4] is recorded as 10%; in series [8], 19%.

B4: KumaMax™ (protein)
chain: MSDMEKPWKEGEEARAVLQGHARAQAPQAVDKGPVAGDERMAVTVVLRRQRAGELAAHVERQAAIAPHAREHLKREAFAASHGASLDDFAELRRFADAHGLALDRANVAAGTAVLSGPDDAINRAFGVELRHFDHPDGSYRSYLGEVTVPASIAPMIEAVLGLDTRPVARPHFRMQRRAEGGFEARSQAAAPTAYTPLDVAQAYQFPEGLDGQGQCIAIIELGGGYDEASLAQYFASLGVPAPQVVSVSVDGASNQPTGDPKGPDGEVELDIEVAGALAPGAKFAVYFAPDTTAGFLDAITTAIHDPTLKPSVVSISWSGPEDSWTSAAIAAMNRAFLDAAALGVTVLAAAGDSGSTGGEQDGLYHVHFPAASPYVLACGGTRLVASGGRIAQETVWNDGPDGGATGGGVSRIFPLPAWQEHANVPPSANPGASSGRGVPDLAGNADPATGYEVVIDGEATVIGGTSAVAPLFAALVARINQKLGKAVGYLNPTLYQLPADVFHDITEGNNDIANRAQIYQAGPGWDPCTGLGSPIGVRLLQALLPSASQPQPGSTENLYFQSGALE
As to B4, the “grade and % of peptide” value is listed as “+/-; 55%” in series [1], “++++” in series [3], “+/-; 65%” in series [6] and “++; 0.9%” in series [7]. Besides, the “Degradation pattern of 33mer (60 min)” value in series [4] is given as “degrades the 33-mer at multiple locations (Max-like)”. Moreover, the “activity on peptide (percent)” value came out at 0.1% in series [4] and 26% in series [8].

B5: Homologue 1 (NCBI YP_005536585) (protein)
chain: MAPSDVEIVDPVAPEERITVTVLLRRRSSIPDQLIEGPDTLSRAELADRHGADPADVEAVRVAMSGAGLTVVGTDLPSRRVTVAGTAEALMRTFGAELQIVRDASGFQHRARSGELRIPAALDGIVIAVLGLDNRPQAEARFRASQPEAARSFRPDALGRVYRFPANTDGTGQTIAIVELGGGFRQSELDTYFGGLGIPAPQVLAVGVDGGQNLPSGDAGSADGEVLLDIEVAGALAPGARQVVYFAPNTDRGFVDAVTTAVHADPTPAAVSISWGAPEDKWTAQARRAFDAALADAAALGVTVTAAAGDRGSADGEGGGGLHTDFPASSPHLLACGGTKLAVADGGTVASETVWNGGERGGATGGGVSVAFGLPAYQRNAGVDKRRKTGKPGRGVPDVAAVADPATGYEVLVDGEQLVFGGTSAVAPLWAALVARLTQALGRPLGLLNTALYDGAQPGRTQPGFRDVTEGDNDISGKHGPYPARAGWDACTGLGVPDGEALLAALRKPGKE
As to B5, the “grade and % of peptide” value in series [1] is on record as “++/-; 29%”; in series [3], “++; 1.6%”; in series [6], “++ (undetect)”; in series [7] it was “-; 80%”. For the same protein, the “rate” value in series [2] was “had activity comparable to or better than Kumamolisin under these conditions”. Moreover, in series [4], the “activity on peptide (percent)” value came to 46%.

B6: Homologue 9 (NCBI YP_005042475) (protein)
chain: MTKQPVSGSSDKIHPDDAKCIGDCDPSEQIEVIVMLRRKDEAGFRQMMSRIDAGEAPGQAVSREEFDRRFTASDEDIDKVKAFAKQYGLSVERAETETRSVVLKGTIEQFQKAFDVKLERFQHHNIGEYRGRTGPVNVPDEMHDAVTAVLGLDSKPQARPHFRFRPPFKPLRGAAPASFSPVDLAKLYDFPDGDGAGQCIAIIELGGGYRDSDLSAYFSKLGVKAPTVVPVGVDGGKNAPTGNPNGPDGEVTLDIEIAGAIAPGARIAVYFAPNSDAGFVDAVNRALHDAANKPSVISISWGGPESNWSPQSMSAFNDVLQSAAALGVTVCAASGDGGSADGVGDGADHVDFPASSPYVLGCGGTSLAASGAGIAKEVVWNDGDQGGAGGGGVSGTFALPVWQKGLSVTRNGKHIALAKRGVPDVAGDASPQTGYEVLIDGEDTVVGGTSAVAPLWAALIARINAIDASPAGFVNPKLYKAKTAFRDITEGNNGSFSAAAGWDACTGMGSPDGGKIAAALKPAKPSQSAGQQ
As for B6, the “grade and % of peptide” value in series [1] is listed as “++/-; 32%”; in series [3], “+; 9%”; in series [6] it was “++ (undetect)”; in series [7], “+/-; 62%”. Further, the “rate” value in series [2] is on record as “had activity comparable to or better than Kumamolisin under these conditions”. For the same protein, the “activity on peptide (percent)” value in series [8] is 52%.

B7: Homologue 2 (NCBI ZP_04943175) (protein)
chain: MQRGTKEGLNMARHLQADREPRIVPESKCLGQCDPAERIHVTIMLRRQEEGQLDALVHQLATGDARAKPVSRDAFAQRFSANPDDIRKTEDFAHRHQLTVDRVDPVESVVVLSGTIAQFEAAFSVKLERFEHRSIGQYRGRSGPIVLPDDIGDAVTAVLGLDSRPQARPHFRFRPPFKPARGAAAVTFTPIQLASLYDFPAGDGAGQCIAIIELGGGYRAADIQQYFRGLGITTPPKLVDVNVGTGRNAPTGEPNGPDGEVALDIEIAGAIAPAAKIAVYFAPNSDAGFIQAVNAAVTDKTNQPSVISISWGGPEAIWQAQSAQAFNRVLQAAAAQGITVCAASGDSGSGDGLQDGADHVDFPASSPYVLGCGGTQLDALPGQGIRSEVTWNDEASGGGAGGGGVSALFDLPAWQQGLKVARADGTTTPLAKRGVPDVAGDASPQTGYEVSVAGTPAVMGGTSAVAPLWAALIARINAANGASAGWINPVLYKHPGALRDITKGSNGTYAAASGWDACTGLGSPNGAQLATILARKPSS
For the protein B7, the “grade and % of peptide” value in series [1] is recorded as “+/-; 65%”; in series [3] it was “++; 0.2%”; in series [6] it was “++ (undetect)”; in series [7] it was “++/-; 37%;”. Moreover, in series [2], the “rate” value is listed as “had activity comparable to or better than Kumamolisin under these conditions”. The “activity on peptide (percent)” value in series [4] was 31%.
